For experiment [1], the target named is T1, GFP-tagged Kif4A (human), O95239.
T1 chain: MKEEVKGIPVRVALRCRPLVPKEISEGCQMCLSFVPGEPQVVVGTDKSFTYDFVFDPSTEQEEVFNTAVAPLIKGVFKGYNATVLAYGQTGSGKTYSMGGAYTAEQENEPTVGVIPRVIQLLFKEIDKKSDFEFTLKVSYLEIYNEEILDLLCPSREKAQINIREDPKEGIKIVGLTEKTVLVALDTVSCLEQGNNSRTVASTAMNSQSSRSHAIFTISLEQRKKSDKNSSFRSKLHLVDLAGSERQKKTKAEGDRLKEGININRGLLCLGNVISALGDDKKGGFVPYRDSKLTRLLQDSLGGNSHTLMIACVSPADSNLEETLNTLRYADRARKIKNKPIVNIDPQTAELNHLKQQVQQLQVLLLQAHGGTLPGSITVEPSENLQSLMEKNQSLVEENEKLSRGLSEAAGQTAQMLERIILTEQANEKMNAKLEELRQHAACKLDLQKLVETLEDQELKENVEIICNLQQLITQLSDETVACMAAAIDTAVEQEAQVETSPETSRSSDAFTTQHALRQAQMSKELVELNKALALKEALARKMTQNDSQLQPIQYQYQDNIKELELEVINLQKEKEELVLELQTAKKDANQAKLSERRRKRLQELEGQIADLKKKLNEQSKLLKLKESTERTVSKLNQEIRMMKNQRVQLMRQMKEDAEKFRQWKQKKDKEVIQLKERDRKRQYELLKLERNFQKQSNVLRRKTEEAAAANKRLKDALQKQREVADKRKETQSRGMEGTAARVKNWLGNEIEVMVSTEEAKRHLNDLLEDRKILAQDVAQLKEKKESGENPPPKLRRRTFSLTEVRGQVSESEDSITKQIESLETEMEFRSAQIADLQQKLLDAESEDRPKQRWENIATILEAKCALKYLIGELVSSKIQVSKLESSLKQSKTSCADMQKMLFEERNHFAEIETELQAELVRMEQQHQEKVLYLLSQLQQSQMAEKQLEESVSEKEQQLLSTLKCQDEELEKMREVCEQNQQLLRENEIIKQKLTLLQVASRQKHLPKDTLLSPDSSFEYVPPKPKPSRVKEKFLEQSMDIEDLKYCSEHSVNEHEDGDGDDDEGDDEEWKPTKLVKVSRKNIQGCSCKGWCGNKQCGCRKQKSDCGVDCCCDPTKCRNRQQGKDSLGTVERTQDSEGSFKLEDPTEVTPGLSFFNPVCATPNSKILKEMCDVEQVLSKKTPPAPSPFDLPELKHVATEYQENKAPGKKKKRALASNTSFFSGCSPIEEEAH
The experiment in a line: single-molecule photobleaching and fluorescence intensity analysis. As to conditions: remark: other sources report otherwise.

For experiment [2], the target named is T2, Kif4A-mCherry (human), O95239.
T2 chain: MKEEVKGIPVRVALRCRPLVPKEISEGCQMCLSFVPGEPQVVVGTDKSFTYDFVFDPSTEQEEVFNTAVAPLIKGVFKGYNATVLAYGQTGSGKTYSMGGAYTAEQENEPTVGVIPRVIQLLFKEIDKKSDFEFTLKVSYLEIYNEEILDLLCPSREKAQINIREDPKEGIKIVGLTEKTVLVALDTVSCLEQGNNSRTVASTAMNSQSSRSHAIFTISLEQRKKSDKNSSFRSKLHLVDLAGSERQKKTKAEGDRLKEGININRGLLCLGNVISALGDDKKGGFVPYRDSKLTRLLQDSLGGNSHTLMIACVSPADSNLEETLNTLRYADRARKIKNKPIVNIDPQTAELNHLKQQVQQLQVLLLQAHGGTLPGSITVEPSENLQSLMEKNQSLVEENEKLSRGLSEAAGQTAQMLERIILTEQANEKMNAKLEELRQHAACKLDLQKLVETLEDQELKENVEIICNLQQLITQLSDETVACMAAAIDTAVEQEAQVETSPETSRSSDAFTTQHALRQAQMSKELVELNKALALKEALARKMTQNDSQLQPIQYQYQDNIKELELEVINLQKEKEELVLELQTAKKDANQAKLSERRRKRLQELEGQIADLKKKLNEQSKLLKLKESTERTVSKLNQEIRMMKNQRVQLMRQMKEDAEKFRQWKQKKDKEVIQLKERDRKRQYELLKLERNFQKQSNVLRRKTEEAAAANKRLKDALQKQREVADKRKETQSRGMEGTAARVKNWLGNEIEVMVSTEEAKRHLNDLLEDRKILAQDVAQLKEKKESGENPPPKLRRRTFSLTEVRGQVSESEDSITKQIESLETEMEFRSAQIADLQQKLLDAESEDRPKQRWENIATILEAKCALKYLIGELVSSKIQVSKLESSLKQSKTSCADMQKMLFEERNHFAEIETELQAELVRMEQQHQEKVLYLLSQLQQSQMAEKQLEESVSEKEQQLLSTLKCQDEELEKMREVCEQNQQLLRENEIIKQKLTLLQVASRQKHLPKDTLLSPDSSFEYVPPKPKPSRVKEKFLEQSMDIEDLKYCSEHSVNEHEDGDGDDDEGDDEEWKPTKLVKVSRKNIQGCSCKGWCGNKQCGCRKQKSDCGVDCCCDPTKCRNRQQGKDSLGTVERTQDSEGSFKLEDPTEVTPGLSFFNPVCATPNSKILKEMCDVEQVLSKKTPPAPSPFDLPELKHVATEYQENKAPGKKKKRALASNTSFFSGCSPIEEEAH
The description is as above. The conditions noted are these: remark: other sources report otherwise.

B1: GFP-tagged Kif4A, O95239 1-1232 (natural protein)
chain: MKEEVKGIPVRVALRCRPLVPKEISEGCQMCLSFVPGEPQVVVGTDKSFTYDFVFDPSTEQEEVFNTAVAPLIKGVFKGYNATVLAYGQTGSGKTYSMGGAYTAEQENEPTVGVIPRVIQLLFKEIDKKSDFEFTLKVSYLEIYNEEILDLLCPSREKAQINIREDPKEGIKIVGLTEKTVLVALDTVSCLEQGNNSRTVASTAMNSQSSRSHAIFTISLEQRKKSDKNSSFRSKLHLVDLAGSERQKKTKAEGDRLKEGININRGLLCLGNVISALGDDKKGGFVPYRDSKLTRLLQDSLGGNSHTLMIACVSPADSNLEETLNTLRYADRARKIKNKPIVNIDPQTAELNHLKQQVQQLQVLLLQAHGGTLPGSITVEPSENLQSLMEKNQSLVEENEKLSRGLSEAAGQTAQMLERIILTEQANEKMNAKLEELRQHAACKLDLQKLVETLEDQELKENVEIICNLQQLITQLSDETVACMAAAIDTAVEQEAQVETSPETSRSSDAFTTQHALRQAQMSKELVELNKALALKEALARKMTQNDSQLQPIQYQYQDNIKELELEVINLQKEKEELVLELQTAKKDANQAKLSERRRKRLQELEGQIADLKKKLNEQSKLLKLKESTERTVSKLNQEIRMMKNQRVQLMRQMKEDAEKFRQWKQKKDKEVIQLKERDRKRQYELLKLERNFQKQSNVLRRKTEEAAAANKRLKDALQKQREVADKRKETQSRGMEGTAARVKNWLGNEIEVMVSTEEAKRHLNDLLEDRKILAQDVAQLKEKKESGENPPPKLRRRTFSLTEVRGQVSESEDSITKQIESLETEMEFRSAQIADLQQKLLDAESEDRPKQRWENIATILEAKCALKYLIGELVSSKIQVSKLESSLKQSKTSCADMQKMLFEERNHFAEIETELQAELVRMEQQHQEKVLYLLSQLQQSQMAEKQLEESVSEKEQQLLSTLKCQDEELEKMREVCEQNQQLLRENEIIKQKLTLLQVASRQKHLPKDTLLSPDSSFEYVPPKPKPSRVKEKFLEQSMDIEDLKYCSEHSVNEHEDGDGDDDEGDDEEWKPTKLVKVSRKNIQGCSCKGWCGNKQCGCRKQKSDCGVDCCCDPTKCRNRQQGKDSLGTVERTQDSEGSFKLEDPTEVTPGLSFFNPVCATPNSKILKEMCDVEQVLSKKTPPAPSPFDLPELKHVATEYQENKAPGKKKKRALASNTSFFSGCSPIEEEAH
For orientation: stoichiometry N means a count of units in the complex or per binding partner. The molecule B1 returned a stoichiometry N in experiment [1] of 2.

B2: Kif4A-mCherry, O95239 1-1232 (natural protein)
chain: MKEEVKGIPVRVALRCRPLVPKEISEGCQMCLSFVPGEPQVVVGTDKSFTYDFVFDPSTEQEEVFNTAVAPLIKGVFKGYNATVLAYGQTGSGKTYSMGGAYTAEQENEPTVGVIPRVIQLLFKEIDKKSDFEFTLKVSYLEIYNEEILDLLCPSREKAQINIREDPKEGIKIVGLTEKTVLVALDTVSCLEQGNNSRTVASTAMNSQSSRSHAIFTISLEQRKKSDKNSSFRSKLHLVDLAGSERQKKTKAEGDRLKEGININRGLLCLGNVISALGDDKKGGFVPYRDSKLTRLLQDSLGGNSHTLMIACVSPADSNLEETLNTLRYADRARKIKNKPIVNIDPQTAELNHLKQQVQQLQVLLLQAHGGTLPGSITVEPSENLQSLMEKNQSLVEENEKLSRGLSEAAGQTAQMLERIILTEQANEKMNAKLEELRQHAACKLDLQKLVETLEDQELKENVEIICNLQQLITQLSDETVACMAAAIDTAVEQEAQVETSPETSRSSDAFTTQHALRQAQMSKELVELNKALALKEALARKMTQNDSQLQPIQYQYQDNIKELELEVINLQKEKEELVLELQTAKKDANQAKLSERRRKRLQELEGQIADLKKKLNEQSKLLKLKESTERTVSKLNQEIRMMKNQRVQLMRQMKEDAEKFRQWKQKKDKEVIQLKERDRKRQYELLKLERNFQKQSNVLRRKTEEAAAANKRLKDALQKQREVADKRKETQSRGMEGTAARVKNWLGNEIEVMVSTEEAKRHLNDLLEDRKILAQDVAQLKEKKESGENPPPKLRRRTFSLTEVRGQVSESEDSITKQIESLETEMEFRSAQIADLQQKLLDAESEDRPKQRWENIATILEAKCALKYLIGELVSSKIQVSKLESSLKQSKTSCADMQKMLFEERNHFAEIETELQAELVRMEQQHQEKVLYLLSQLQQSQMAEKQLEESVSEKEQQLLSTLKCQDEELEKMREVCEQNQQLLRENEIIKQKLTLLQVASRQKHLPKDTLLSPDSSFEYVPPKPKPSRVKEKFLEQSMDIEDLKYCSEHSVNEHEDGDGDDDEGDDEEWKPTKLVKVSRKNIQGCSCKGWCGNKQCGCRKQKSDCGVDCCCDPTKCRNRQQGKDSLGTVERTQDSEGSFKLEDPTEVTPGLSFFNPVCATPNSKILKEMCDVEQVLSKKTPPAPSPFDLPELKHVATEYQENKAPGKKKKRALASNTSFFSGCSPIEEEAH
On to B2, for which the stoichiometry N in experiment [2] is 2.
